Patent US20210032312A1 (Janssen / Centocor, published 2021)

B1: P282FR9P1361_H5 (designed binder)
chain: LPAPKNLVVSRVTEDSARLSWTAPDAAFDSFDIWYAEYGYPGEAIVLTVPGSERSYDLTGLKPGTEYDVAISGVKGGPRSYPLSAIFTT
notes: FN3 domain
B2: P282FR9P1361_F3 (designed binder)
chain: LPAPKNLVVSRVTEDSARLSWTAPDAAFDSFDIWYAEYGYPGEAIVLTVPGSERSYDLTGLKPGTEYDVAISGAKGGPRSYPLSAIFTT
notes: FN3 domain
B3: P282FR9P1361_C7 (designed binder)
chain: LPAPKNLVVSRVTEDSARLSWTAPDAAFDSFGIWYHEYGGDGEAIVLTVPGSERSYDLTGLKPGTEYDVAIWGVKGGDVSYPLSAIFTT
notes: FN3 domain
B4: P282FR9P1361_F11 (designed binder)
chain: LPAPKNLVVSRVTEDSARLSWTAPDAAFDSFGIWYREYGGSGEAIVLTVPGSERSYDLTGLKPGTEYDVAIWGVKGGVRSYPLSAIFTT
notes: FN3 domain
B5: P282FR9P1361_F1 (designed binder)
chain: LPAPKNLVVSRVTEDSARLSWTAPDAAFDSFGIWYAEYGYSGEAIVLTVPGSERSYDLTGLKPGTEYDVAIWGVKGGVRSYPLSAIFTT
notes: FN3 domain
B6: P282FR9P1361_F2 (designed binder)
chain: LPAPKNLVVSRVTEDSARLSWTAPDAAFDSFDIWYAEYGYPGEAIVLTVPGSERSYDLTGLKPGTEYDVAISGIKGGPRSYPLSAIFTT
notes: FN3 domain
B7: P282FR9P1361_A3 (designed binder)
chain: LPAPKNLVVSRVTEDSARLSWTAPDAAFDSFDIWYAEYGYPGEAIVLTVPGSERSYDLTGLKPGTEYDVAIVGVKGGNRSYPLSAIFTT
notes: FN3 domain
B8: P282FR9P1361_D3 (designed binder)
chain: LPAPKNLVVSRVTEDSARLSWTAPDAAFDSFDIWYAEYGYPGEAIVLTVPGSERSYDLTGLNPGTEYDVAISGVKGGPRSYPLSAIFTT
notes: FN3 domain
B9: P282ER9P1360_D11 (designed binder)
chain: LPAPKNLVVSRVTEDSARLSWTAPDAAFDSFGILYYEPVDSGEAITLPVPGSERSYDLTGLKPGTEYFVIIVGVKGGYPSIPLGAAFTT
notes: FN3 domain
B10: P282ER9P1360_G7 (designed binder)
chain: LPAPKNLVVSRVTEDSARLSWTAPDAAFDSFGILYYEPVDSGEAITLPVPGSERSYDLTGLKPGTEYWVVITGVKGGAPSTPLGAILTT
notes: FN3 domain
B11: P282ER9P1360_E4 (designed binder)
chain: LPAPKNLVVSRVTEDSARLSWTAPDAAFDSFGILYYEPVDSGEAITLPVLGSERSYDLTGLKPGTEYWVVITGVKGGAPSTPLGAIFTT
notes: FN3 domain
B12: P282ER9P1360_H2 (designed binder)
chain: LPAPKNLVVSRVTEDSARLSWTAPDAAFDSFSIAYVEAELVGEAIQLVVPGSERSYDLTGLKPGTEYWVVILGVKGGNPSNPLGASFTTT
notes: FN3 domain
B13: P282ER9P1360_H10 (designed binder)
chain: LPAPKNLVVSRVTEDSARLSWTAPDAAFDSFEIYYPEWPFAGEAIGLPVPGSERSYDLTGLKPGTEYFVVIYGVKGGELSEPLTAQFTT
notes: FN3 domain
B14: P282ER9P1360_F11 (designed binder)
chain: LPAPKNLVVSRVTEDSARLSWIAPDAAFDSFSIAYVEAELVGEAIQLVVPGSERSYDLTGLKPGTEYWVVILGVKGGNPSNPLGASFTT
notes: FN3 domain
B15: P282ER9P1360_H3 (designed binder)
chain: LPAPKNLVVSRVTEDSARLSWTAPDAAFDSFSIAYVEAELVGEAIQLVVPGSERSYDLTGLKPGTEYWVVILGVKGGNPSNPLGASFTT
notes: FN3 domain
B16: P282ER9P1360_G10 (designed binder)
chain: LPAPKNLVVSRVTEDSARLSWTAPDAAFDSFAIWYVEQHPFGEAIPLFVPGSERSYDLTGLKPGTEYTVGIRGVKGGNFSTPLIAHFTT
notes: FN3 domain

Key:
In house human CD8A-Fc = target: T1, In house human CD8A-Fc (human, UniProt P01732 22-182, limits assumed); experiment: SPR (ProteOn), captured hCD8A-Fc
T1 construct: Captured on goat anti-human Fc on a ProteOn GLC chip; also called hCD8A-Fc; recombinant human CD8 alpha; not shown: linker with flag (and polyhistidine) tag and Fc of human IgG1

[1] = target: T2, cynomolgus monkey CD8A on primary cynomolgus monkey CD8+ T cells (cynomolgus monkey, UniProt P01732 23-235 (human entry)); experiment: flow cytometry, cyno CD8+ T cells, 2 uM FN3
T2 construct: also called Cyno CD8alpha

[2] = target: T3, human CD8 alpha (CD8A) on primary human CD8+ T cells (human, UniProt P01732 22-235); experiment: flow cytometry, human CD8+ T cells, 2 uM FN3
T3 construct: whole, on cells; also called hCD8A

[3] = target: T2, cynomolgus monkey CD8A on primary …; experiment: flow cytometry, cyno CD8+ T cells, 0.2 uM FN3
[4] = target: T3, human CD8 alpha (CD8A) on primary human …; experiment: flow cytometry, human CD8+ T cells, 0.2 uM FN3

T2 sequence (P01732 other isoform, or with tags, fused parts or gaps limits assumed): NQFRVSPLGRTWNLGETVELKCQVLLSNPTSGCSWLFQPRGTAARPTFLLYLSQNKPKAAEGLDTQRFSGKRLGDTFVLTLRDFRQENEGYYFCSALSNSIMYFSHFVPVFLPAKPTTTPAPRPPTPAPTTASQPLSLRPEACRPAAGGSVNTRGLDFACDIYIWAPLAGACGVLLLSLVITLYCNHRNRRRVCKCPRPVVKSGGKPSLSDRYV
T3 sequence (P01732 22-235): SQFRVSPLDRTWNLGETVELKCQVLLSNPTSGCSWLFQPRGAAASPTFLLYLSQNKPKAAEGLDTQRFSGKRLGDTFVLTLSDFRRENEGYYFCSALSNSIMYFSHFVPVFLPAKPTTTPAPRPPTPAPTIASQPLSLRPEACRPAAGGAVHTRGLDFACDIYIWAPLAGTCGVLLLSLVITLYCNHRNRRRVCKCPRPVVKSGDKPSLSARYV
T1 sequence (P01732 22-182 limits assumed): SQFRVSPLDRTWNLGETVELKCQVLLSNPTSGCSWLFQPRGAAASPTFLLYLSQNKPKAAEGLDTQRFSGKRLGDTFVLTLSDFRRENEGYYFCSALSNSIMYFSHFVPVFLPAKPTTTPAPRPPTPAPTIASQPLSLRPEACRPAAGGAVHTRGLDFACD

Binder	koff (In house human CD8A-Fc) [s⁻¹]	Cyno T-cell Binding 2 uM (MFI) [1] [MFI]	Human T-cell Binding 2 uM (MFI) [2] [MFI]	Cyno T-cell Binding 0.2 uM (MFI) [3] [MFI]	Human T-cell Binding 0.2 uM (MFI) [4] [MFI]
B1	0.00577	11800	5730	637	698
B2	0.0107	9710	5160	513	674
B3	0.00224	11600	8540	896	1580
B4	0.00213	2290	2190	384	382
B5	0.00126	9870	5500	1390	801
B6	0.00496	10900	4610	462	498
B7	0.000757	8480	7670	740	1660
B8	0.00502	14800	6880	764	1030
B9	0.000142	76600	36800	1940	3210
B10	0.000221	69700	25400	9920	5870
B11	0.000191	60800	26900	6870	5030
B12	0.000269	44600	15200	4540	3480
B13	0.00104	27100	2510	1890	506
B14	0.000225	48700	22400	4410	3860
B15	0.000242	66000	20000	6440	4270
B16	0.00207	62700	27000	22600	7050
